# According to patent US20260193376A1 (Novo Nordisk, published 2026):
# Positions count from the first letter of the chain named.
# B1: mAb01-9994 (antibody, V domains shown)
# VH: EVQLVESGGGLVQPGRSLRLSCAASGFTFHDYAMHWVRQVPGKGLEWVSGISWKGDIGGYVDSVKGRFTISRDNEKNSLYLQMNSLRAEDTALYYCVKSYGSGSFYNAFDSWGQGTLVTVSS
# VL: DIQMTQSPSTLSASVGDRVTITCRASQSISSWLAWYQQKPGKAPKFLIYKASRLDRGTPSRFSGSGSGTEFSLTISSLQPDDFATYYCLEYSSYIRTFGQGTKVEIK
# notes: Bivalent IgG
# B2: mAb01-9933 (antibody, V domains shown)
# VH: B1 VH with R19K, H30D, E75A, M83L, V97A
# VL: B1 VL with V15A, R18E, F46L, R53K, T58V, S77D
# notes: Bivalent IgG
# B3: mAb01-9985 (antibody, V domains shown)
# VH: B1 VH with K54R, D62K, E75A
# VL: B1 VL with R53K, D55E
# notes: Bivalent IgG
# B4: mAb01-9978 (antibody, V domains shown)
# VH: B1 VH
# VL: B1 VL with F46L, D55E
# notes: Bivalent IgG
# B5: mAb01-8913 (antibody, V domains shown)
# VH: EVQLVQSGAEVKKPGESLRISCKGSGYSFSTSWIVWVRQMPGKGLEWMGMIDPSDSFTSYSPSFQGHVTISADKSISTAYLQWSSLKASDTAMYYCARLHYYNSEEFDVWGQGTLVTVSS
# VL: EIVLTQSPGTLSLSAGERATLSCRASQSVSSSYLAWYQQKPGQAPRLLIYGASSRARGIPDRFSGSGSGTDFTLTISRLEPEDFAVYYCQQFGSSRLFTFGQGTKLEIK
# notes: Bivalent IgG
# B6: mAb01-9772 (antibody, V domains shown)
# VH: B5 VH with V35S, F57Y, L115M
# VL: B5 VL with A15P, A52Q, A56T, F92Y, S94D, R96Q
# notes: Bivalent IgG
# Target: T1, randomly biotinylated human FIXa (human, UniProt P00740 47-191; P00740 227-461, randomly biotinylated (NHS-d-biotin))
# T1 sequence (P00740 47-191, chain 1 of 2): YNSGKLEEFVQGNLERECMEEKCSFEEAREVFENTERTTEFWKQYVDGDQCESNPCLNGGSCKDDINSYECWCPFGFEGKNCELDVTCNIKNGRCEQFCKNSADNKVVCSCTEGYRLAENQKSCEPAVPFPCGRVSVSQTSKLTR
# T1 sequence (P00740 227-461, chain 2 of 2): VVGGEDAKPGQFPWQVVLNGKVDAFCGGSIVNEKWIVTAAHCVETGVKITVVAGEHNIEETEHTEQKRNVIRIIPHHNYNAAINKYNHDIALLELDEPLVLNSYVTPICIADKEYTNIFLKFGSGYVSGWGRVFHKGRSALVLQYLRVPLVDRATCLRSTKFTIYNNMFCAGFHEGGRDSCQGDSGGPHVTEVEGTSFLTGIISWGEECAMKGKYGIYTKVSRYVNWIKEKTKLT
# Assay: BLI (Octet) in-tandem binning on biotinylated FIXa, 330 nM each; competitor (1st antibody): hIgG4 (control)
# Description: (§1) Binning experiments were performed using Octet fortebio systems (HTX, Red384), based on the principle of Bio-Layer Interferometry, and equipped with streptavidin sensors (Pall Life Sciences, Menlo Park, CA), and using 8-channel mode. The binning assays were performed using a modified in-tandem setup. Briefly, (1) 370 nM randomly biotinylated human FIXa (biotinylated using NHS-d-biotin from Sigma H1759 and human FIXa obtained from Haematologic Technologies, Essex Junction, VT) was captured by streptavidin tips (dip and read biosensors Part NO:18-5019, Pall Life Sciences, Menlo Park, CA) for 5 minutes, (2) 330 nM of a first bivalent anti-FIXa antibody was then offered to the streptavidin tips, and incubated for 10 minutes until the biotinylated FIXa were fully saturated and (3) the tips were then offered to an equimolar solution of 330 nM of the first antibody and 330 nM of a second bivalent anti-FIXa antibody for 5 minutes. […] Unspecific binding were evaluated by including an unrelated human IgG4 bivalent antibody as first and second antibody control.
row,Binder,interferometry response value
1,B1,0.75
2,B2,0.59
3,B3,0.83
4,B4,0.4

# Target: T2, human coagulation Factor IX (human, UniProt P00740 47-461)
# T2 construct: also called FIX
# T2 sequence (P00740 47-461 T194A limits assumed): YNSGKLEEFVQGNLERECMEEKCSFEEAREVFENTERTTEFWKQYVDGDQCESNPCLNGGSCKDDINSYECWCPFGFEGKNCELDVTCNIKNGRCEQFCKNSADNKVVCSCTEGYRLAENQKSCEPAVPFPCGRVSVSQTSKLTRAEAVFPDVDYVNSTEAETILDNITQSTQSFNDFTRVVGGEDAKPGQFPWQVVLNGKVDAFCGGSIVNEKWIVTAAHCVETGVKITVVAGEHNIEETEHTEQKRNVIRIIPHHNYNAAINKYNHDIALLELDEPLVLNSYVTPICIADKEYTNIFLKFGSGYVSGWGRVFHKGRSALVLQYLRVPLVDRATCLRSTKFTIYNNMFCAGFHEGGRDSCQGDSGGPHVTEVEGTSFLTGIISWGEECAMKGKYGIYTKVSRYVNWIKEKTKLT
# Assay: ITC, 37 °C, pH 7.4, antibody injected into FIX
# Description: (§2) Binding affinities for anti-FIX(a) and anti-FX(a) antibodies were measured by isothermal titration calorimetry […] by using a PEAQ-ITC calorimeter (Malvern, UK). The experiments were conducted at 37° C. and pH 7.4 using 25 mM Tris, 150 mM NaCl, 5 mM CaCl₂ (Tris-buffer). The sample cell (200 μl) contained either FIX, FIXa, or FX (macromolecule) and anti-FIX(a) and anti-FX(a) antibodies (ligand) were injected via a syringe (40 μl). All proteins were extensively dialyzed in Tris-buffer prior to measurements to secure matched buffer conditions. A thermal equilibration step was followed by a 60 s delay and subsequently an initial 0.2 μl injection of antibody, followed by 12-16 injections of 1.5-3 μl of antibody at an interval of 120 s. The stirring speed was maintained at 750 rpm, and the reference power is kept constant at 5-10 μcal/s. The heat associated with each injection of antibody is integrated and plotted against the molar ratio of ligand to macromolecule. The resulting isotherm is fitted to a one-site binding model to obtain the affinity (KD), stoichiometry (n), and enthalpy of interaction (ΔH) using the software provided by the manufacturer. Experiments were performed in at least duplicates.
row,Binder,Kd
1,B1,2480 nM
2,B2,2390 nM
3,B3,1920 nM
4,B4,5600 nM

# Target: T1, randomly biotinylated human FIXa
# Assay: BLI (Octet) in-tandem binning on biotinylated FIXa, 330 nM each; competitor (1st antibody): mAb01-2434
# Description: as §1
row,Binder,interferometry response value
1,B1,0.56
2,B2,0.46
3,B3,0.6
4,B4,0.34

# Target: T3, human plasma-derived Factor IXa (human, UniProt P00740 47-191; P00740 227-461)
# T3 construct: also called FIXa; hFIXa
# T3 sequence (P00740 47-191, chain 1 of 2): as the sequence (P00740 47-191, chain 1 of 2) above
# T3 sequence (P00740 227-461, chain 2 of 2): as the sequence (P00740 227-461, chain 2 of 2) above
# Assay: ITC, 37 °C, pH 7.4, antibody injected into FIXa
# Description: as §2
row,Binder,Kd
1,B1,1800 nM
2,B2,1300 nM
3,B3,1260 nM
4,B4,3570 nM

# Target: T1, randomly biotinylated human FIXa
# Assay: BLI (Octet) in-tandem binning on biotinylated FIXa, 330 nM each; competitor (1st antibody): mAb01-1767
# Description: as §1
row,Binder,interferometry response value
1,B1,0.01
2,B2,0.02
3,B3,0.02
4,B4,0.01

# Target: T4, human coagulation Factor X (human, UniProt P00742 41-179; P00742 183-488)
# T4 construct: also called FX
# T4 sequence (P00742 41-179, chain 1 of 2): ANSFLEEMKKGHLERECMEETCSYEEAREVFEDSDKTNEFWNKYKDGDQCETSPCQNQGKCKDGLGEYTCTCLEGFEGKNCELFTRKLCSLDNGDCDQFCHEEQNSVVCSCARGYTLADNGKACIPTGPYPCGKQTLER
# T4 sequence (P00742 183-488, chain 2 of 2): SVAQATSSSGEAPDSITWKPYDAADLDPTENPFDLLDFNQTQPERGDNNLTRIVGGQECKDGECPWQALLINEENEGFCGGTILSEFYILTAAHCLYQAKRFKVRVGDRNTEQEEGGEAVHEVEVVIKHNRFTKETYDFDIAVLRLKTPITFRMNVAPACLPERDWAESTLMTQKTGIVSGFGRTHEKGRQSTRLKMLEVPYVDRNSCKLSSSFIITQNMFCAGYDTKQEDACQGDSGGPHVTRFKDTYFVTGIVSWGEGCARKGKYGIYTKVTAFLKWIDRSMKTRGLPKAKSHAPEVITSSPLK
# Assay: ITC, 37 °C, pH 7.4, antibody injected into FX
# Description: as §2
row,Binder,Kd
1,B5,350 nM
2,B6,1370 nM

# Target: T1, randomly biotinylated human FIXa
# Assay: BLI (Octet) in-tandem binning on biotinylated FIXa, 330 nM each; competitor (1st antibody): 224F3
# Description: as §1
row,Binder,interferometry response value
1,B1,0.4
2,B2,0.34
3,B3,0.44
4,B4,0.24
